Results from patent US8691960B2, “Oxidoreductases for enantioselective reactions” (Duke University, priority 2012, dated 2014).
Like-named read-outs stand apart in the source and are kept apart here.

Columns and labels:
[1] = NADH oxidation with 2-oxoadipate plus CO2 added as NaHCO3 (reductive carboxylation); assay type: biochemical
Method: (§1) NADH, 2-oxoadipate, 2-oxoglutarate, 2-heptandioate, and MgCl2 were from Sigma. Standard reaction mixes contained 15 mM 2-oxoadipate, 100 μM NADH, and a reaction buffer with final concentrations of 20 mM MgCl2 and 500 mM HEPES, pH 7.3. NADH oxidation was monitored by the decrease in fluorescence with excitation of 340 nm and emission of 450 nm on a PolarSTAR Optima plate reader (BMG Labtech). Fluorescence monitored reactions were carried out in 10-μL volumes in a 384-well black microplate (Greiner 788076) covered with clear optical film. The levels of fluorescence were converted to NADH concentrations based on standards of NADH in reaction buffer containing BSA. Reactions with high amounts of NADH were monitored by the UV absorbance of NADH at 340 nm in 40-μL reaction volumes in clear 96-well plates.
(§2) Reaction rates are NADH oxidation per unit time per unit of purified enzyme or crude lysate and 1 Unit (U) is 1 μmolNADH min^−1 mgenzyme^−1. Rates are initial rates calculated by least squares linear regression on the first 10 minutes of the reaction. For KM determination, concentrations of substrate/cofactors at least 5×-higher than the KM were used, while the species of interest was varied in concentration; substrate/cofactor concentrations: 500 μM NADH; 15 mM 2-oxoadipate; 20 mM MgCl2. Reported α-hydroxyadipate (2-hydroxy adpic acid) Vmax values were obtained from 2-oxoadipate KM determination experiments. Michaelis-Menten KM and Vmax parameters were estimated by fitting data to a curve using nonlinear regression in GraphPad Prism 5.0 (GraphPad Software, La Jolla, Calif.).

[2] = literature; cited from earlier work
[3] = Enantiospecific LC-MS/MS quantification of (R)- and (S)-2-hydroxyadipate product; assay type: biochemical; settings: for Enantiomeric Excess: Table 3, (R)-2-hydroxyadipate product
Method: Quantitative, enantiospecific LC-MS/MS was performed based on the procedure described for 2-hydroxyglutarate. Jin et al., PLoS one 6, e16812: 1-8 (2011); Struys, et al., Clin. Chem. 50: 1391-1395 (2004). To 20 μL of reaction mix, 2 μL of 130 μg/mL of a racemic mixture of [3,3,4,4-^2H4]-2-hydroxyglutarate (internal standard) in water was added and the mixture dried by vacuum centrifuge (50° C., 15 min). The dry residue was treated with 50 mg/mL freshly prepared diacetyl-L-tartaric anhydride (Sigma) in dichloromethane/glacial acetic acid (4:1 by volume) and heated (75° C., 30 min). After drying (50° C., 15 min) the residue was dissolved in 100 μL of LC mobile phase A (see below) for analysis. An Agilent 1200 series HPLC (Santa Clara, Calif.) was used for liquid chromatography (LC) and a Sciex/Applied Biosystems API 3200 QTrap (Carlsbad, Calif.) was used for triple quadrupole mass spectrometry (MS/MS). Mobile phase A: water, 3% acetonitrile, 280 μL ammonium hydroxide (^˜25%), pH adjusted to 3.6 with formic acid (^˜98%). Mobile phase B: methanol. Analytical column: Kinetex C-18, 150×4.6 mm, 2.6 μm, and SafeGuard C-18 4×3 mm guard-column from Phenomenex (Torrance, Calif.). Column temperature: 45° C. Elution gradient at 1 mL/min flow rate: 0-1 min 0% B, 1-2 min 0-100% B, 2-3.5 min 100% B, 3.5-4 min 100-0% B, 4-10 min 0% B. Injection volume: 10 μL. Q1/Q3 (m/z) transitions were monitored: 377/161, 2-hydroxyadipate (2HA) and 367/151, [3,3,4,4-^2H4]-2-hydroxyglutarate (2HG-d4). To calibrate, 0, 0.16, 0.54, 1.8, 6, and 20 μg/mL 2-hydroxyadipate (Sigma), synthesized as described above, was analyzed in reaction buffer. (R)- and (S)-enantiomers were discriminated based on time of elution from the HPLC column, using the relative elution time for (R)-2-hydroxyglutarate compared to the racemic mixture of 2-hydroxyglutarate described previously to identify the (R)-2-hydroxyadipate enantiomer. Jin et al., PLoS one 6, e16812: 1-8 (2011). Standards were analyzed alongside experimental samples. Accuracy acceptance criteria were 85% for all but the lowest level (0.16 μg/mL, 80%).

[4] = ScHIDH, literature; read-out: KM,HCO3, previous observation; cited from earlier work
[5] = NADH oxidation rate of purified HIDH enzymes with 2-oxoadipate (fluorescence / UV 340 nm); assay type: biochemical; settings: ScHIDH, 15 mM 2-oxoadipate, 100 μM NADH, 0.4 μg purified enzyme
Method: as §1, §2
(§3) Assays were performed with 40 ng/μL enzyme, 15 mM 2-oxoadipate, 100 μM NADH, 20 mM MgCl2 and 100 mM HEPES, pH 7.3 in 10 or 20 μL volumes in 384-well black microplates. NADH concentration was monitored by the decrease in fluorescence (excitation wavelength: 340 nm; emission wavelength: 450 nm) on a fluorescent plate reader. The fluorescence intensities were converted to NADH concentrations based on NADH standards. Reactions with high amounts of NADH (>300 μM) were monitored by the UV absorbance of NADH at 340 nm in a 40 μL reaction volume in a clear 96-well plate on the same plate reader. Reactions with ScHIDH were carried out at 25° C. and reactions with TtHIDH were carried out at 45° C. Reported rates are initial rates from the first 10 minutes of reaction. For KM determination, concentrations of substrate at least 5×-higher than the KM were used (for NADH, 500 μM; for 2-oxoadipate, 15 mM) while the substrate of interest was varied in concentration. KM and Vmax were estimated by fitting data to equation (1) using nonlinear regression, where x is substrate concentration and y is the rate. y=Vmax·x/KM+x (1) Rate data for ScHIDH-R143C, -R143H, and -R143K are summarized in Table 3.

[6] = literature (Lin et al. 2007); cited from earlier work
[7] = Kinetic characterization of ScHIDH mutants: KM NADH; assay type: biochemical; settings: Table 3; 15 mM 2-oxoadipate, 20 mM MgCl2, pH 7.3, 25° C.
Method: as §2, §3

[8] = Kinetic characterization of ScHIDH mutants: KM 2-oxoadipate and Vmax; assay type: biochemical; settings: for Km / Vmax: Table 3; for Km: 40 ng/μL enzyme, 500 μM NADH, 20 mM MgCl2, pH 7.3, 25° C.; for Vmax: from 2-oxoadipate KM experiments
Method: as §2, §3

[9] = 2-hydroxyadipate dehydrogenase activity of crude bacterial lysates expressing ScHIDH mutants; assay type: biochemical; settings: for reaction rate relative to ScHIDH-R143H: crude lysates, 15 mM 2-oxoadipate
Method: To obtain crude lysates, 0.5 mL of starter cultures generated as described above were added to 4.5 mL LB-Amp, shaken for 2 h, and shaken for an additional 2 h after induction with 1 mM IPTG. Pellets from these cultures were harvested by centrifugation at 4500×g at 4° C. These pellets were resuspended into 500 μL of Buffer A (0.2% Triton-X 100, 1 mM PMSF, 0.5 mM EDTA, 10 mM Tris, pH 7.5) on ice and sonicated for 6-cycles of 15 seconds each on ice on a Sonifer 250 (Branson). This was then spun down at 13,000×g at 4° C. for 15 min and the cleared lysates were normalized with additional lysis buffer to 700 ng/4 and stored at −80° C. as aliquots. Protein concentrations were determined using the BioRad Protein Assay reagent according to the manufacturer's instructions.
as §1, §2

B1: TtHIDH-WT: wild type Thermus thermophilus homoisocitrate dehydrogenase (protein, listed as Thermus thermophilus)
chain: MAYRICLIEGDGIGHEVIPAARRVLEATGLPLEFVEAEAGWETFERRGTSVPEETVEKILSCHATLFGAATSPTRKVPGFFGAIRYLRRRLDLYANVRPAKSRPVPGSRPGVDLVIVRENTEGLYVEQERRYLDVAIADAVISKKASERIGRAALRIAEGRPRKTLHIAHKANVLPLTQGLFLDTVKEVAKDFPLVNVQDIIVDNCAMQLVMRPERFDVIVTTNLLGDILSDLAAGLVGGLGLAPSGNIGDTTAVFEPVHGSAPDIAGKGIANPTAAILSAAMMLDYLGEKEAAKRVEKAVDLVLERGPRTPDLGGDATTEAFTEAVVEALKSL
**Q.** What does the source list for B1?
**A.** rate of NADH consumption with NaHCO3 added ([1]; TtHIDH, 2-oxoadipate and NADH, CO2 added as NaHCO3): 0.14±0.022 U; efficiency for 2-oxoglutarate relative to 2-oxoadipate [2]: 20 times; increase of (R)-2-hydroxyadipate concentration after 2 h ([3]; TtHIDH, 100 μM NADH, 15 mM 2-oxoadipate, 45° C., 2 h): not observed

B2: ScHIDH-WT: wild type Saccharomyces cerevisiae homoisocitrate dehydrogenase (encoded by LYS12) (protein, listed as Saccharomyces cerevisiae)
chain: MFRSVATRLSACRGLASNAARKSLTIGLIPGDGIGKEVIPAGKQVLENLNSKHGLSFNFIDLYAGFQTFQETGKALPDETVKVLKEQCQGALFGAVQSPTTKVEGYSSPIVALRREMGLFANVRPVKSVEGEKGKPIDMVIVRENTEDLYIKIEKTYIDKATGTRVADATKRISEIATRRIATIALDIALKRLQTRGQATLTVTHKSNVLSQSDGLFREICKEVYESNKDKYGQIKYNEQIVDSMVYRLFREPQCFDVIVAPNLYGDILSDGAAALVGSLGVVPSANVGPEIVIGEPCHGSAPDIAGKGIANPIATIRSTALMLEFLGHNEAAQDIYKAVDANLREGSIKTPDLGGKASTQQVVDDVLSRL
**Q.** What does the source list for B2?
**A.** Km [4]: 16.3 mM; rate of NADH oxidation when CO2 was added as HCO3 ([1]; ScHIDH, 2-oxoadipate, NADH): 0.061±0.0090 U; Km ([1]; ScHIDH, read-out: KM,HCO3): 10 ± 3.7 mM; rate of NADH oxidation in the presence of 2-oxoadipate [5]: < 0.001 U; concentration of (R)-2-hydroxyadipate after 10 h ([3]; ScHIDH, initially 2 mM NADH and 2 mM 2-oxoadipate, 10 h): no 2-hydroxyadipate accumulation was observed; rate for homoisocitrate relative to isocitrate [6]: 216 fold

B3: ScHIDH-R143C: Saccharomyces cerevisiae homoisocitrate dehydrogenase R143C mutant (protein)
chain: MFRSVATRLSACRGLASNAARKSLTIGLIPGDGIGKEVIPAGKQVLENLNSKHGLSFNFIDLYAGFQTFQETGKALPDETVKVLKEQCQGALFGAVQSPTTKVEGYSSPIVALRREMGLFANVRPVKSVEGEKGKPIDMVIVCENTEDLYIKIEKTYIDKATGTRVADATKRISEIATRRIATIALDIALKRLQTRGQATLTVTHKSNVLSQSDGLFREICKEVYESNKDKYGQIKYNEQIVDSMVYRLFREPQCFDVIVAPNLYGDILSDGAAALVGSLGVVPSANVGPEIVIGEPCHGSAPDIAGKGIANPIATIRSTALMLEFLGHNEAAQDIYKAVDANLREGSIKTPDLGGKASTQQVVDDVLSRL
modifications: ScHIDH R143C polypeptide
notes: Saccharomyces cerevisiae homoisocitrate dehydrogenase R143C mutant
**Q.** Which Km [7] does the source give for B3 here?
**A.** 320 µM

**Q.** What about the Enantiomeric Excess [3] of the same molecule?
**A.** > 99.2%

**Q.** What about the Km [8] of the same molecule?
**A.** 11 mM

**Q.** And the Vmax [8]?
**A.** 0.065 µmol/min/mg

**Q.** What about the “maximal turnover compared with other ScHIDH mutants” value ([8]; in vitro data) of the same molecule?
**A.** highest maximal turnover of any ScHIDH mutant assayed

**Q.** And the “2-hydroxyadipate dehydrogenase activity in crude bacterial lysates” value ([9]; 100 μM NADH substrate)?
**A.** did not demonstrate 2-hydroxyadipate dehydrogenase activity

B4: ScHIDH-R143K: Saccharomyces cerevisiae homoisocitrate dehydrogenase R143K mutant (protein)
chain: MFRSVATRLSACRGLASNAARKSLTIGLIPGDGIGKEVIPAGKQVLENLNSKHGLSFNFIDLYAGFQTFQETGKALPDETVKVLKEQCQGALFGAVQSPTTKVEGYSSPIVALRREMGLFANVRPVKSVEGEKGKPIDMVIVKENTEDLYIKIEKTYIDKATGTRVADATKRISEIATRRIATIALDIALKRLQTRGQATLTVTHKSNVLSQSDGLFREICKEVYESNKDKYGQIKYNEQIVDSMVYRLFREPQCFDVIVAPNLYGDILSDGAAALVGSLGVVPSANVGPEIVIGEPCHGSAPDIAGKGIANPIATIRSTALMLEFLGHNEAAQDIYKAVDANLREGSIKTPDLGGKASTQQVVDDVLSRL
modifications: ScHIDH R143K polypeptide
notes: Saccharomyces cerevisiae homoisocitrate dehydrogenase R143K mutant
**Q.** Which Km [7] does the source give for B4 here?
**A.** 1100 µM

**Q.** And the Enantiomeric Excess [3]?
**A.** > 92%

**Q.** What about the Km [8] of the same molecule?
**A.** 9.4 mM

**Q.** What about the Vmax [8] of the same molecule?
**A.** 0.011 µmol/min/mg

**Q.** And the “reaction rate relative to ScHIDH-R143H” value ([9]; 800 μM NADH)?
**A.** 83.0±0.03%

**Q.** What about the “reaction rate relative to ScHIDH-R143H” value ([9]; standard conditions of 100 μM NADH) of the same molecule?
**A.** 3.6±0.3%
